Measurements as given in CN115594767A.

Experiments:
[1] = target: CD16A-158V (UniProt P08637); experiment: BLI, CD16A-158V on anti-his probe, antibody as analyte
[2] = target: HER2 (Human epidermal growth factor receptor 2) (human) (UniProt P04626); experiment: ELISA, HER2 coated at 1 ug/mL, HRP-anti-human IgG Fc detection

UniProt P08637, sequence (P08637 17-208 F176V limits assumed): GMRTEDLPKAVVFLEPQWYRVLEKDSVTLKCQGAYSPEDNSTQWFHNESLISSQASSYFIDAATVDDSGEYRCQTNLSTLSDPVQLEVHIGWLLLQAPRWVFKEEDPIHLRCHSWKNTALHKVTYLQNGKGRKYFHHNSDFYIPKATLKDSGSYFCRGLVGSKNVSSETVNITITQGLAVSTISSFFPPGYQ

Kd [1] [nM] | koff [1] [s⁻¹] | kon [1] [M⁻¹ s⁻¹] | EC50 [2] [nM] | Substance
464 | 0.0782 | 168000 | 0.149 | KN026 (bispecific antibody)
– | – | – | 0.127 | MGAH22 (antibody)
